Test results as given in patent KR20230010676A (dated 2023).
Like-named read-outs stand apart in the source and are kept apart here.

What was measured:
[1] = molecular target: SARS-CoV-2 스파이크 단백질 (SARS-CoV-2, UniProt P0DTC2 14-1273); test: cell-based or functional assay
[2] = molecular target: T1, SARS-CoV-2 RBD (자체 생산, BetaCoV/Wuhan-Hu-1/2019 스파이크의 잔기 331 내지 550, 수탁 번호 MN908947) (SARS-CoV-2 (BetaCoV/Wuhan-Hu-1/2019), UniProt P0DTC2 331-550); test: ELISA, RBD coated on plate, serial dilutions of recombinant mAb
T1 construct: range 331-550; also called SARS-CoV-2 스파이크 단백질 RBD

[3] = molecular target: T2, SARS-CoV RBD (Sino Biological) (SARS-CoV (SARS-CoV-1), UniProt P59594 306-527); test: ELISA, RBD coated on plate
T2 construct: domain: RBD; also called SARS-CoV-1 RBD; SARS-CoV-1 스파이크 단백질 RBD

[4] = molecular target: T1, SARS-CoV-2 RBD (자체 생산, …); test: ELISA, RBD coated on plate, serial dilutions of recombinant mAb; remark: listed apart in the source
[5] = molecular target: T3, SARS-CoV-2 RBD (정제된, SPR) (SARS-CoV-2 (Wuhan-Hu-1), UniProt P0DTC2 331-550)
[6] = molecular target: T3, SARS-CoV-2 RBD (정제된, SPR); test: SPR, Biacore T200; ratio against S2E12 WT
[7] = molecular target: T3, SARS-CoV-2 RBD (정제된, SPR); remark: listed apart in the source
[8] = molecular target: T3, SARS-CoV-2 RBD (정제된, SPR); test: SPR, Biacore T200, single-cycle kinetics, antibody captured, RBD injected
[9] = molecular target: T3, SARS-CoV-2 RBD (정제된, SPR); test: SPR, Biacore T200; ratio against S2E12 WT; remark: listed apart in the source
[10] = molecular target: T2, SARS-CoV RBD (Sino Biological); test: ELISA, RBD coated on plate, serial dilutions of recombinant mAb

Row | Binder | IC50 (neutralisation) [1] [µg/mL] | IC80 (neutralisation) [1] [µg/mL] | IC90 (neutralisation) [1] [µg/mL] | Kd [5] [nM] | KD_WT/KD [6] | Kd [8] [nM] | koff [8] [s⁻¹] | kon [8] [M⁻¹ s⁻¹] | other results
1 | S2X47 (antibody, V domains shown, also called S2X47-11) VH: QVQLQESGPGLVKPSQTLSLTCTVSGGSISSRSYYWSWIRQPAGKGLEWIGRIYTSGNTNYNPSLRSRVTISVDTSKNQFSLKLGSVTAADTAVYYCARERIIGTAHVGGWFDPWGQGTLVTVSS VL: not shown | 0.003 | 0.012 | 0.025 | – | – | – | – | – | EC50 [2]: 0.092 µg/mL; binding result [3]: no binding
2 | S2X30 (antibody, V domains shown, also called S2X30-11) VH: EVQLVQSGAEVKKPGSSVKVSCKASGGTFGSYTISWVRQAPGQGLEWMGRIIPILSIPNYAQKFQGRVTFTADKSTSTAYMELSSLRSEDTAVYYCARGGGGTHAVPHYYFDSWGQGTLVTVSS VL: EIVMMQSPATLSVSPGERATLSCRASQSVSSNLAWYQHKPGQAPRLLIYGASTRATGIPARFSGSGSGTEFTLTISSMQSEDFAVYYCQQYNNWPFTFGGGTKVEIK | 0.015 | 0.031 | 0.046 | – | – | – | – | – | binding result [3]: no binding
3 | S2E12 (antibody, V domains shown, also called S2E12 WT; S2E12 wt) VH: not shown VL: DIVLTQTPGTLSLSPGERATLSCRASQSVSSSYLAWYQQKPGQAPRLLIYGASSRATGIPDRFSGSGSGTDFTLTISRLEPEDFAVYYCQQYVGLTGWTFGQGTKVEIK | – | – | – | 2.28 | 1 | 1.18 | 0.00233 | 1.98e+06 | EC50 [4]: 0.0434 µg/mL; Kd [7]: 1.31 nM; koff [7]: 0.00317 s⁻¹; kon [7]: 2.42e+06 M⁻¹ s⁻¹
4 | 409_11_4_v13 (antibody, V domains shown) VH: not shown VL: DIVLTQTPGTLSLSPGERATLSCRASQSVSSSYLAWYQQKPGQAPRLLIYGASSRATGIPDRFSGSGSGTDFTLTISRLEPEDFAVYYCQQYVGLTGWTFGQGTKVEIK | – | – | – | 51.4 | 0.04 | – | – | – | –
5 | 409_11_4_v3 (antibody, V domains shown) VH: not shown VL: DIVLTQTPGTLSLSPGERATLSCRASQSVSSSYLAWYQQKPGQAPRLLIYGASSRATGIPDRFSGSGSGTDFTLTISRLEPEDFAVYYCQQYVGLTGFTFGQGTKVEIK | – | – | – | – | – | 13 | 0.0153 | 1.18e+06 | KD/KD_WT [9]: 0.1
6 | 409_11_4_v5 (antibody, V domains shown) VH: not shown VL: DIVLTQTPGTLSLSPGERATLSCRASQSVSSSYLAWYQQKPGQAPRLLIYGASSRATGIPDRFSGSGSGTDFTLTISRLEPEDFAVYYCQQYVGLTGWTFGQGTKVEIK | – | – | – | – | – | 13.3 | 0.0358 | 2.68e+06 | KD/KD_WT [9]: 0.098
7 | 409_11_4_v12 (antibody, V domains shown) VH: not shown VL: DIVLTQTPGTLSLSPGERATLSCRASQSVSSSYLAWYQQKPGQAPRLLIYGASSRATGIPDRFSGSGSGTDFTLTISRLEPEDFAVYYCQQYVGLTGWTFGQGTKVEIK | – | – | – | 45.3 | 0.05 | – | – | – | –
8 | 409_11_4_v6 (antibody, V domains shown) VH: not shown VL: DIVLTQTPGTLSLSPGERATLSCRASQSVSSSYLAWYQQKPGQAPRLLIYGASSRATGIPDRFSGSGSGTDFTLTISRLEPEDFAVYYCQQYVGLTGWTFGQGTKVEIK | – | – | – | 20.4 | 0.11 | – | – | – | –
9 | 409_11_4_v7 (antibody, V domains shown) VH: not shown VL: DIVLTQTPGTLSLSPGERATLSCRASQSVSSSYLAWYQQKPGQAPRLLIYGASSRATGIPDRFSGSGSGTDFTLTISRLEPEDFAVYYCQQYVGLTGWTFGQGTKVEIK | – | – | – | – | – | 4.9 | 0.00913 | 1.86e+06 | KD/KD_WT [9]: 0.267
10 | 409_11_4_v2 (antibody, V domains shown, also called S2E12-v2) VH: not shown VL: DIVLTQTPGTLSLSPGERATLSCRASQSVSSSYLAWYQQKPGQAPRALIYGASSRATGIPDRFSGSGSGTDFTLTISRLEPEDFAVYYCQQYVGLTGWTFGQGTKVEIK | – | – | – | 0.788 | 2.89 | – | – | – | –
11 | 409_11_4_v4 (antibody, V domains shown) VH: not shown VL: DIVLTQTPGTLSLSPGERATLSCRASQSVSSSYLAWYQQKPGQAPRLLIYGASSRATGIPDRFSGSGSGTDFTLTISRLEPEDFAVYYCQQYVGLTGYTFGQGTKVEIK | – | – | – | 25.9 | 0.09 | – | – | – | –
12 | S2X16 (antibody, V domains shown, also called S2X16-11) VH: EVQLVQSGAEVKKPGASVKVSCKASGYIFTDHYMHWVRQAPGQGLEWMGWINPNSGGTNYAQKFQGRVTMTRDTSINTAYMELSRLRSDDTAVHYCARDRSRFRFFSPDFDYWGQGTLVTVSS VL: not shown | 0.006 | 0.022 | 0.046 | – | – | – | – | – | binding result [3]: no binding
13 | S2X35 (antibody, V domains shown, also called S2X35-11) VH: QVQLVQSGAEVKKPGASVKVSCKASGYTFTNYGISWVRQAPGQGLEWMGWISAYKGNTNYAQKLQGRVTMTTDTSTSTAYMELRSLRSDDTAVYYCARPDYQVLGYDFWIGYYGMDVWGQGTTVIVSS VL: QSVLTQPPSVSGAPGQRVTISCTGSSSNIGAGYDVHWYQQLPGTAPKLLIYGNTNRPSGVPDRFSGSKSGTSASLAITGLQAEDEADYYCQSYDSSLSGSEVVFGGGTKLTVL | 0.092 | 0.32 | 0.661 | – | – | – | – | – | EC50 [10]: 0.0846 µg/mL; EC50 [2]: 0.0483 µg/mL
